This note sets out measurements from article PMC4963197, “Phosphorylation acts positively and negatively to regulate MRTF-A subcellular localisation and activity” (eLife, 2016).

In one assay the test system is Crm1. Description: GST pulldown of recombinant Crm1. It is filed as binding. The conditions noted are these: Ran 1–180 Q69L, 3 hr at 4°C. As for the experimental part: For GST pulldown assays, glutathione-sepharose was saturated with GST-fusion proteins, washed in binding buffer (50 mM Tris-HCl pH 7.5, 100 mM NaCl, 10 mM MgCl2, 0.05% NP-40), and incubated with purified recombinant Crm1, Ran(1–180) Q69L or ERK2 for 3 hr at 4°C. After four washes with binding buffer, proteins were eluted in SDS loading buffer for analysis. For kinase assays, glutathione-Sepharose was saturated with GST-MRTF 2–199, washed in binding buffer, and incubated with purified recombinant ERK2 and actin in binding buffer with 250 μM ATP and 10 mg/ml BSA, at 30°C. The reaction was stopped by addition of SDS loading buffer.

The target of another assay is T1, G-actin (Oryctolagus cuniculus, UniProt P68135).
T1 construct: Actin was prepared as described ([Mouilleron et al., 2008]); from tissue; host or cells: rabbit skeletal muscle (own knowledge of the cited method)
Description: Size exclusion chromatography of G-actin / MRTF-A(67–199) complexes. It is filed as binding. The conditions noted are these: SEC, recombinant MRTF-A(67–199). How it is done: GST-fusions were expressed in E. coli Rosetta (DE3) pLysS (Novagen). Lysis was in 50 mM Tris-HCl pH 7.5, 300 mM NaCl, 1% TX-100, 5 mM DTT, 10 mM EDTA pH 8, 1 mM PMSF, 15 μg/mL Benzamidine, followed by passage through a French press. Following adsorption onto glutathione-Sepharose, proteins were recovered by cleavage with GST-3C protease at 4°C overnight in 50 mM Tris-HCl (pH 7.5), 100 mM NaCl, 1 mM DTT. Crm1 and Ran(1–180) Q69L were purified as described ([Güttler et al., 2010]).
Preparation of LatB-actin and fluorescence polarisation anisotropy assay were described ([Guettler et al., 2008]). Size exclusion chromatography was on Superdex 200 column equilibrated in 20 mM Tris (pH 8), 100 mM NaCl, 3 mM MgCl2, 0.2 mM EGTA, 0.3 mM TCEP [(tris(2-carboxyethyl)phosphine)], 5% (v/v) glycerol, calibrated with globular proteins of known molecular weight.
In general terms: Size exclusion chromatography separates by hydrodynamic size, large species first.

B1: MRTF residues 2–67: MRTF-A N-terminal residues 2–67 containing NES1 (protein, UniProt Q8K4J6 2-67, looked up, fragment)
chain: TLLEPEMLMMAVQSVLQLKLQQRRTREELVSQGIMPPLKSPAAFHEQRRSLERARTEDYLKRKIRS
On to B1, for which, in the assay with Crm1, the “recovery of recombinant Crm1” value is on record as “could recover recombinant Crm1 from solution in a pulldown assay”.

B2: MRTF-A(67–199) WT: recombinant MRTF-A(67–199), intact RPEL domain (protein, UniProt Q8K4J6 67-199, looked up, fragment)
chain: SRPERAELVRMHILEETSAEPSLQAKQLKLKRARLADDLNEKIAQRPGPMELVEKNILPVESSLKEAIIVGQVNYPKVADSSSFDEDSSDALSPEQPASHESQGSVPSPLESRVSDPLPSATSISPTQVLSQL
Take B2: the “apparent molecular mass of G-actin complex” value in the assay with G-actin (Superdex 200, 20 mM Tris (pH 8), 100 mM NaCl, 3 mM MgCl2, 0.2 mM EGTA, 0.3 mM TCEP, 5% glycerol) is given as 139.8 kDa. In the assay with G-actin (Superdex 200, pH 8, calibrated with globular proteins), the “apparent stoichiometry of G-actin binding” value stood at 3.0 actins.
